Experimental data: the supplement of paper PMC10201428
± gives the standard deviation of the averaged measurements.

Experiments:
[1] = system: VchCAST RNA-guided transposition machinery (E. coli BL21(DE3) host, lacZ target); assay: relative integration efficiency (T-RL orientation) vs wild-type transposon end (log2 (normalized fold change)); transposon end mutated: right end (5 bp flank + 75 bp right end); higher = more efficient transposition
Procedure, shortened: (§1)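 Each barcoded pool, 1549 left-end or 1849 right-end transposon variants in a pUC57 mini-transposon donor, went into E. coli BL21(DE3) with a T7-driven effector plasmid (CRISPR array, tniQ-cas8-cas7-cas6, tnsA-tnsB-tnsC). Plates contained 0.1 mM IPTG and were held at 37°C for 18 h. Input plasmids and genomic integration junctions were PCR-amplified and read by Illumina sequencing, with two biological output replicates and four reference barcodes. Relative integration efficiency is the fold change of output over input barcode abundance, normalised to the reference barcodes and log-transformed.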

[2] = system: VchCAST RNA-guided transposition machinery (E. coli BL21(DE3) host, lacZ target); assay: relative integration efficiency (T-LR orientation) vs wild-type transposon end (log2 (normalized fold change)); transposon end mutated: right end (5 bp flank + 75 bp right end); higher = more efficient transposition
Procedure, shortened: as §1

Sequence	relative integration efficiency (log2) [1]	relative integration efficiency (log2) [2]
ACATTTGTTGATACCACCATAAAATGGTAATTCCACCCATACATTGATAATTATCACACCCAATTTAACTATAACGCTCTGATCATAGTCAGACCAACATTGCTACGACCCGTATTCGCACCGACAC	-3.16 ± 0.49	0.278 ± 0.23
ACATTTGTTGATACCACCATAAAATGGTAATTCCACCCCTAAATTGATAATTATCACACCCAATTTAACTATAACGCTCTGATCATAGTCAGACCAACATTGCTACGACCCGTATTCGCACCGACAC	-3.4 ± 0.27	-0.252 ± 0.21
ACATTTGTTGATACCACCATAAAATGGTAATTCCACCCCTACATTGATAATTATCACACCCAATTTAACTATAACGCTCTGATCATAGTCAGACCAACATTGCTACGACCCGTATTCGCACCGACAC	-4.47 ± 0.45	-0.833 ± 0.022
ACATTTGTTGATACCACCATCAAATGATAATTACACCCATAAATTGATAATTATCACACCCAATTTAACTATAACGCTCTGATCATAGTCAGACCAACATTGCTACGACCCGTATTCGCACCGACAC	-1.91 ± 0.26	1.14 ± 0.18
ACATTTGTTGATACCACCATCAAATGATAATTACACCCATACATTGATAATTATCACACCCAATTTAACTATAACGCTCTGATCATAGTCAGACCAACATTGCTACGACCCGTATTCGCACCGACAC	-3.87 ± 0.1	-0.805 ± 0.15
ACATTTGTTGATACCACCATCAAATGATAATTACACCCCTAAATTGATAATTATCACACCCAATTTAACTATAACGCTCTGATCATAGTCAGACCAACATTGCTACGACCCGTATTCGCACCGACAC	-4.72 ± 0.056	-1.78 ± 0.038
ACATTTGTTGATACCACCATCAAATGATAATTACACCCCTACATTGATAATTATCACACCCAATTTAACTATAACGCTCTGATCATAGTCAGACCAACATTGCTACGACCCGTATTCGCACCGACAC	-5.58 ± 0.31	-2.42 ± 0.59
ACATTTGTTGATACCACCATCAAATGATAATTCCACCCATAAATTGATAATTATCACACCCAATTTAACTATAACGCTCTGATCATAGTCAGACCAACATTGCTACGACCCGTATTCGCACCGACAC	-2.05 ± 0.11	1.36 ± 0.27
ACATTTGTTGATACCACCATCAAATGATAATTCCACCCATACATTGATAATTATCACACCCAATTTAACTATAACGCTCTGATCATAGTCAGACCAACATTGCTACGACCCGTATTCGCACCGACAC	-4.883 ± 0.0066	-1.66 ± 0.086
ACATTTGTTGATACCACCATCAAATGATAATTCCACCCCTAAATTGATAATTATCACACCCAATTTAACTATAACGCTCTGATCATAGTCAGACCAACATTGCTACGACCCGTATTCGCACCGACAC	-5.24 ± 0.34	-2.31 ± 0.042
ACATTTGTTGATACCACCATCAAATGATAATTCCACCCCTACATTGATAATTATCACACCCAATTTAACTATAACGCTCTGATCATAGTCAGACCAACATTGCTACGACCCGTATTCGCACCGACAC	-5.99 ± 0.51	-2.15 ± 0.19
ACATTTGTTGATACCACCATCAAATGGTAATTACACCCATAAATTGATAATTATCACACCCAATTTAACTATAACGCTCTGATCATAGTCAGACCAACATTGCTACGACCCGTATTCGCACCGACAC	-2.79 ± 0.21	0.203 ± 0.17
ACATTTGTTGATACCACCATCAAATGGTAATTACACCCATACATTGATAATTATCACACCCAATTTAACTATAACGCTCTGATCATAGTCAGACCAACATTGCTACGACCCGTATTCGCACCGACAC	-5.6 ± 0.15	-2.98 ± 0.51
ACATTTGTTGATACCACCATCAAATGGTAATTACACCCCTAAATTGATAATTATCACACCCAATTTAACTATAACGCTCTGATCATAGTCAGACCAACATTGCTACGACCCGTATTCGCACCGACAC	-6.57 ± 0.25	-3.8 ± 0.81
ACATTTGTTGATACCACCATCAAATGGTAATTACACCCCTACATTGATAATTATCACACCCAATTTAACTATAACGCTCTGATCATAGTCAGACCAACATTGCTACGACCCGTATTCGCACCGACAC	-3.15 ± 0.8	0.00776 ± 0.29
ACATTTGTTGATACCACCATCAAATGGTAATTCCACCCATAAATTGATAATTATCACACCCAATTTAACTATAACGCTCTGATCATAGTCAGACCAACATTGCTACGACCCGTATTCGCACCGACAC	-3.19 ± 0.23	-0.205 ± 0.08

Sequence	relative integration efficiency (log2) [1]	relative integration efficiency (log2) [2]
ACATTTGTTGATACCACCATCAAATGGTAATTCCACCCATACATTGATAATTATCACACCCAATTTAACTATAACGCTCTGATCATAGTCAGACCAACATTGCTACGACCCGTATTCGCACCGACAC	-6.61 ± 0.18	-4.54 ± 0.41
ACATTTGTTGATACCACCATCAAATGGTAATTCCACCCCTAAATTGATAATTATCACACCCAATTTAACTATAACGCTCTGATCATAGTCAGACCAACATTGCTACGACCCGTATTCGCACCGACAC	-6.33 ± 0.84	-4 ± 0.18
ACATTTGTTGATACCACCATCAAATGGTAATTCCACCCCTACATTGATAATTATCACACCCAATTTAACTATAACGCTCTGATCATAGTCAGACCAACATTGCTACGACCCGTATTCGCACCGACAC	-6.99 ± 0.2	-3.726 ± 0.034
ACATTTGTTGATACCCAAATAAAATGATAATTACACCCATAAATTGATAATTATCACACCCATAAATTGATATTGCCTCTGATCATAGTCAGACCAACATTGCTACGACCCGTATTCGCACCGACAC	-2.59 ± 0.17	-2.7 ± 0.25
ACATTTGTTGATACCCCCATAAAATGATAATTACACCCATAAATTGATAATTATCACACCCATAAATTGATATTGCCTCTGATCATAGTCAGACCAACATTGCTACGACCCGTATTCGCACCGACAC	-0.828 ± 0.081	-0.879 ± 0.24
ACATTTGTTGATACTACCATAAAATGATAATTACTCCCATAAATTGATAATTATCACTCCCATAAATTGATATTGCCTCTGATCATAGTCAGACCAACATTGCTACGACCCGTATTCGCACCGACAC	-0.805 ± 0.022	-0.0376 ± 0.31
ACATTTGTTGATACTACCATATAATGATAATAACACCCATAAAATGATAATTATCACACCCAATTTAACTATAACGCTCTGATCATAGTCAGACCAACATTGCTACGACCCGTATTCGCACCGACAC	-1.45 ± 0.32	1.9 ± 0.11
ACATTTGTTGATACTACCATTTAATGATAATAACACCCATAAAATGATAATTATCACACCCAATTTAACTATAACGCTCTGATCATAGTCAGACCAACATTGCTACGACCCGTATTCGCACCGACAC	-1.01 ± 0.18	1.8 ± 0.17
ACATTTGTTGATACTTCCATAAAATGATAATTACACCCATAAATTGATAATTATCACACCCATAAATTGATATTGCCTCTGATCATAGTCAGACCAACATTGCTACGACCCGTATTCGCACCGACAC	-0.637 ± 0.052	-0.525 ± 0.042
ACATTTGTTGATACTTGGATAAAATGATAATTACACCCATAAATTGATAATTATCACACCCATAAATTGATATTGCCTCTGATCATAGTCAGACCAACATTGCTACGACCCGTATTCGCACCGACAC	-0.966 ± 0.23	-1.07 ± 0.2
ACATTTGTTGATAGAACCATAAAATGATAATTAGACCCATAAATTGATAATTATCAGACCCATAAATTGATATTGCCTCTGATCATAGTCAGACCAACATTGCTACGACCCGTATTCGCACCGACAC	-1.64 ± 0.2	-0.628 ± 0.11
ACATTTGTTGATAGAACCATATAATGATAATAACACCCATAAAATGATAATTATCACACCCAATTTAACTATAACGCTCTGATCATAGTCAGACCAACATTGCTACGACCCGTATTCGCACCGACAC	-1.72 ± 0.33	1.28 ± 0.069
ACATTTGTTGATAGAACCATTTAATGATAATAACACCCATAAAATGATAATTATCACACCCAATTTAACTATAACGCTCTGATCATAGTCAGACCAACATTGCTACGACCCGTATTCGCACCGACAC	-2.12 ± 0.42	0.598 ± 0.17
ACATTTGTTGATAGTACCATAAAATGATAATTACACCCATAAATTGATAATTATCACACCCATAAATTGATATTGCCTCTGATCATAGTCAGACCAACATTGCTACGACCCGTATTCGCACCGACAC	-0.367 ± 0.064	-1.23 ± 0.17
ACATTTGTTGATAGTTGCATAAAATGATAATTACACCCATAAATTGATAATTATCACACCCATAAATTGATATTGCCTCTGATCATAGTCAGACCAACATTGCTACGACCCGTATTCGCACCGACAC	-1.07 ± 0.13	-1.37 ± 0.15
ACATTTGTTGATAGTTGGTATTTTACTATTAATCACCCATAAATTGATAATTATCAGTGGGTATTTAACTATAACGCTCTGATCATAGTCAGACCAACATTGCTACGACCCGTATTCGCACCGACAC	-5.71 ± 0.79	-4.49 ± 1.4
